Data set [1] addresses recombinant factor B derived from Tachypleus tridentatus (Tachypleus tridentatus) (UniProt Q27081). Description: cell-based or functional assay.
Data set [2] addresses T1, recombinant protein having proclotting enzyme activity of Limulus polyphemus (recombinant third protein).
T1 chain: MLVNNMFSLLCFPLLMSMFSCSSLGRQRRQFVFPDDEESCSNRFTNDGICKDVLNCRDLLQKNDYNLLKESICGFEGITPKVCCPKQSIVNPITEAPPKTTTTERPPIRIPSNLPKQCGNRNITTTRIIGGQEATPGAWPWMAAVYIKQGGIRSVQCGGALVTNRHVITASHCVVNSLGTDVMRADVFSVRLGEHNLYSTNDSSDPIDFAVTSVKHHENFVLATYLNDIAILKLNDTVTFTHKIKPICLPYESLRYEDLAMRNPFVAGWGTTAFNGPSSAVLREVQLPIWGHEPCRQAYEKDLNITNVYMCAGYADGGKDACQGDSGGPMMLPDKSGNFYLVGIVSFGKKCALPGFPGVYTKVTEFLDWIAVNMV

Data set [3] has as its target T2, recombinant protein having factor B activity of Limulus polyphemus (recombinant second protein).
T2 chain: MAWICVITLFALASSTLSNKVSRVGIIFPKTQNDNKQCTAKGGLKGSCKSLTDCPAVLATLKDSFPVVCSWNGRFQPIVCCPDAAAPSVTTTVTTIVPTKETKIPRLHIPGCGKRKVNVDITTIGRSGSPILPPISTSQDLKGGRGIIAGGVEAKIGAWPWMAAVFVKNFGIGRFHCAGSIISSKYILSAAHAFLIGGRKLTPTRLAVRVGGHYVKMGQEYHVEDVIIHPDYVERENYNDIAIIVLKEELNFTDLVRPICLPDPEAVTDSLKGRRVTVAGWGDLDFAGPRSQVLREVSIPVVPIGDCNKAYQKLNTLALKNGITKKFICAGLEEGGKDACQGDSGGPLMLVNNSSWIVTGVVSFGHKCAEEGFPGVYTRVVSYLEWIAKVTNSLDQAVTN

Data set [4] concerns the target T3, recombinant factor B derived from Tachypleus tridentatus, Q27081.
T3 chain: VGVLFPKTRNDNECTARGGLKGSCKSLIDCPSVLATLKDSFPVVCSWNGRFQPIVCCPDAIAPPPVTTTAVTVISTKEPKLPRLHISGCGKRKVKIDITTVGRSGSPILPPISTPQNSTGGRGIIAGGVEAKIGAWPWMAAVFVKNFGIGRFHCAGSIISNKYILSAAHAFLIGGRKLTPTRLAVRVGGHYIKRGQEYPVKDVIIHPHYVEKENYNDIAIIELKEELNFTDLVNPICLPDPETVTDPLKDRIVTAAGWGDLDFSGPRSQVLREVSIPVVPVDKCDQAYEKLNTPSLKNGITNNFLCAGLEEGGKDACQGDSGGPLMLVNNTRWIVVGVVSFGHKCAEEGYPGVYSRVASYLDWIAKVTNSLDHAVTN

“recombinant factor C derived from the genus Tachypleus (Tachypleus tridentatus) (from UniProt P28175 26-1019) (enzyme)”: in data set [1], the change in the absorbance in the cascade reaction system (TFC + TFB + TPCE + Boc-LGR-pNA) at endotoxin 0 EU/mL (blank) was determined as 0.51 mAbs/min and the change in the absorbance in the cascade reaction system (TFC + TFB + TPCE + Boc-LGR-pNA) at endotoxin 0.05 EU/mL amounted to 9.15 mAbs/min.

B1: recombinant protein having factor B activity of Limulus polyphemus (recombinant second protein) (protein)
chain: MAWICVITLFALASSTLSNKVSRVGIIFPKTQNDNKQCTAKGGLKGSCKSLTDCPAVLATLKDSFPVVCSWNGRFQPIVCCPDAAAPSVTTTVTTIVPTKETKIPRLHIPGCGKRKVNVDITTIGRSGSPILPPISTSQDLKGGRGIIAGGVEAKIGAWPWMAAVFVKNFGIGRFHCAGSIISSKYILSAAHAFLIGGRKLTPTRLAVRVGGHYVKMGQEYHVEDVIIHPDYVERENYNDIAIIVLKEELNFTDLVRPICLPDPEAVTDSLKGRRVTVAGWGDLDFAGPRSQVLREVSIPVVPIGDCNKAYQKLNTLALKNGITKKFICAGLEEGGKDACQGDSGGPLMLVNNSSWIVTGVVSFGHKCAEEGFPGVYTRVVSYLEWIAKVTNSLDQAVTN
On to B1, for which, in data set [2], the “cleavage of synthetic substrate Boc-LGR-pNA (change in absorbance A405 nm) in the cascade reaction with endotoxin (0 and 0.05 EU/mL); FC + FB + PCE” value is reported as “when all the three types of recombinant proteins were included, cleavage of the synthetic substrate was observed”.

B2: recombinant factor C derived from Limulus polyphemus (recombinant first protein, protein having factor C activity) (protein)
chain: RGVDLGLCDDTRFECKCGDPGYVFNVPAKQCTYFYRWRPYCKPCDKLEAKDVCPKYKRCQECRAGLDSCVSCPPNKYGTWCSGECQCKNGGICDQRTGACTCRDRYEGVHCEILQGCPLLQSDPQVQEVKNPPNDPQTIDYSCSPGFKLKGVARITCLPNGQWSSFPPKCIRECSMVSSLEHGKVNSPSADLIEGATLRFSCDSPYYLIGQETLTCQGNGQWSGQIPQCQKLVFCPDLDPVSHAEHQVKIGLEQKYGQFPQGTEVTYTCTGNYFLMGLDTLKCNPDGSWSGTQPSCVKVADREVNCDSKAVDFLDDVGEPVRIHCPAGCSLTAGTVWGTAIYHELSSVCRAAIHAGKVPNSGGAVHVVNNGPYSDFLASDLNGIKSDELKSLAQSFRFDYVSSSTAGRKSGCPDGWFEIEENCVYVTSKQRAWERAQGVCTNMAARLAVLDKDVIPSSLTETLRGKGLATTWIGLHRLDADNHFIWELMDRSSVALNDSLTFWAPGEPGNETNCVYLDIQDQLQPVWKTKSCFQPSSFVCMMDLSDKNKAKCKDPGPLENGHAKLHGQSIDGFYAGSSVRYSCEVLHYLSGTETVSCTSNGTWSAPKPRCIKVITCQTPPVPSYGSVDIKPPSRTNSISRVGSPFLRLPRLPLPLARAAGPPPKPRSAPPSTVDLSSKVKLPEGHYRVGSQAIYTCESRYYELLGSQGRRCDSNGKWSGRPASCIPVCGRSDSPRSPFIVNGNSTEIGQWPWQAGISRWLADHNMWFLQCGGALLNEKWIITAAHCVTYSATAEIIDPSQFKFYLGKYYRDDSKDDDYVQVREAIEIHVNPNYDPGNLNFDIALIQLKTSVALTTRVQPICLPTDLTTRENLKEGALAVVTGWGLNENNTYSEMIQQAVLPVVAASTCEQGYQDSGLPLTVTENMFCAGYKQGRYDACSGDSGGPLVFADDSRTDRRWVLEGIVSWGSPNGCGKSNQYGGFTKVNVFLSWIRQFI
B2: the “cleavage of synthetic substrate Boc-LGR-pNA (change in absorbance A405 nm) in the cascade reaction with endotoxin (0 and 0.05 EU/mL); FC + FB + PCE” value in data set [3] is “when all the three types of recombinant proteins were included, cleavage of the synthetic substrate was observed”. Also, in data set [4], the “activity in the cascade reaction system relative to TFC” value is recorded as “LFC showed the activity about 1.6 times (about 2.2 times when considering the difference in the protein amount) higher than TFC” and the “activity in the cascade reaction system relative to TFC, corrected for the difference in the protein amount” value is “LFC showed the activity about 1.6 times (about 2.2 times when considering the difference in the protein amount) higher than TFC”. In data set [1], the change in the absorbance in the cascade reaction system (LFC + TFB + TPCE + Boc-LGR-pNA) at endotoxin 0 EU/mL (blank) came out at 0.53 mAbs/min and the change in the absorbance in the cascade reaction system (LFC + TFB + TPCE + Boc-LGR-pNA) at endotoxin 0.05 EU/mL stood at 14.3 mAbs/min.

Source of the values: patent US20190241629A1.
